# Values of other authors as cited in PMC5818423.
# Tests used:
# [1] = biological target: CD26 (UniProt P27487)
# [2] = biological target: Adenosine A1 receptor (UniProt P30542)
# Chain of Adenosine A1 receptor (P30542 whole entry): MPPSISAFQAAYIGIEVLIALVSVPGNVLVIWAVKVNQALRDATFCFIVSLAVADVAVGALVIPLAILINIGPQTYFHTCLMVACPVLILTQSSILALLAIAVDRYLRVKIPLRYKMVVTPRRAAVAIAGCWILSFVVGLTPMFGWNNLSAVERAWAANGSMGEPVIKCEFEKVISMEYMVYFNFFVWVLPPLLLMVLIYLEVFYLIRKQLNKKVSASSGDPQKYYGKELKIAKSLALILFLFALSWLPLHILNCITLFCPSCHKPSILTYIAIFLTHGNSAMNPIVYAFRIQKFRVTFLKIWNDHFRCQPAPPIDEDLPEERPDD
# Chain of Adenosine deaminase (P00813 2-363): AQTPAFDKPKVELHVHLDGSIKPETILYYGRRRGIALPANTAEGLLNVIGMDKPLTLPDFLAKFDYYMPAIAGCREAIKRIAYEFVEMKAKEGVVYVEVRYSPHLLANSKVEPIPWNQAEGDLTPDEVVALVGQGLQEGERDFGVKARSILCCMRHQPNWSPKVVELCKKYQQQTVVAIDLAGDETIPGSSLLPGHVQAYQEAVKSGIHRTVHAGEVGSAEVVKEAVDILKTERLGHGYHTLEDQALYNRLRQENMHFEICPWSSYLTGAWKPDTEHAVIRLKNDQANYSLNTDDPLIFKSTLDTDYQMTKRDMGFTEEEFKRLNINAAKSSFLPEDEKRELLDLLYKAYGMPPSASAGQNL
# Chain of CD26 (P27487 39-766): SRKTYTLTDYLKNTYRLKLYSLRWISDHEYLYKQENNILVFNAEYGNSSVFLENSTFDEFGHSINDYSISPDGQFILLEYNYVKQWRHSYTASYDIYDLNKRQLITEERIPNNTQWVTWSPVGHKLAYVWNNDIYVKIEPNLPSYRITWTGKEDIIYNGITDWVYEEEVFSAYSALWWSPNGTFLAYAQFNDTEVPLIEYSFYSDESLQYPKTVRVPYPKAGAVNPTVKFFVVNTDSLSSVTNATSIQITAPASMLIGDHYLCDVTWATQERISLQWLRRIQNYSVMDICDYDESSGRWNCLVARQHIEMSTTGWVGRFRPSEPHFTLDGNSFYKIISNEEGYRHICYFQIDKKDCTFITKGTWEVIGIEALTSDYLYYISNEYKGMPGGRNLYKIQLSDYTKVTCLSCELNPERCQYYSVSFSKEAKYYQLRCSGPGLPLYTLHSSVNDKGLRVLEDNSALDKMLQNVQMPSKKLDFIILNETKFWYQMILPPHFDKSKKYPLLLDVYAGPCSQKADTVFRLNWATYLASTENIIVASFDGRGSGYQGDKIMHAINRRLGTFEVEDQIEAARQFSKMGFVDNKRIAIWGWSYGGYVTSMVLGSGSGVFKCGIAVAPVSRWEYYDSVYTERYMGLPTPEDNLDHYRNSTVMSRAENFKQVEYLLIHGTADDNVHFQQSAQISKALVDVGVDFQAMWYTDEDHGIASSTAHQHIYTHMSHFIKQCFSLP
substance,measurement,setting,value
Adenosine deaminase (from UniProt P00813),Kd,[1],18 nM
same,Kd,[2],230 nM
